{"source": "paper PMC10567701", "about": "(Nature Communications, 2023)", "binders": {"B1": {"name": "LptM^His (natural protein, Escherichia coli, UniProt P0ADN6 20-67, looked up)", "chain": "CGLKGPLYFPPADKNAPPPTKPVETQTQSTVPDKNDRATGDGPSQVNY", "modifications": "also: tri-acylated", "notes": "LptM (formerly YifL), E. coli, UniProt P0ADN6; mature and tri-acylated lipoprotein (theoretical mass with the tag 6,988 Da); also called C-terminally poly-histidine tagged version of E. coli LptM; YifL; source: E. coli BW25113 ΔlptM, overproduced from pLptDEM^His or pLptM^His; DDM-solubilized envelope fraction; not shown: poly-histidine, C-terminal, kept"}, "B2": {"name": "LptD (natural protein, Escherichia coli, UniProt P31554 25-784, looked up)", "chain": "ADLASQCMLGVPSYDRPLVQGDTNDLPVTINADHAKGDYPDDAVFTGSVDIMQGNSRLQADEVQLHQKEAPGQPEPVRTVDALGNVHYDDNQVILKGPKGWANLNTKDTNVWEGDYQMVGRQGRGKADLMKQRGENRYTILDNGSFTSCLPGSDTWSVVGSEIIHDREEQVAEIWNARFKVGPVPIFYSPYLQLPVGDKRRSGFLIPNAKYTTTNYFEFYLPYYWNIAPNMDATITPHYMHRRGNIMWENEFRYLSQAGAGLMELDYLPSDKVYEDEHPNDDSSRRWLFYWNHSGVMDQVWRFNVDYTKVSDPSYFNDFDNKYGSSTDGYATQKFSVGYAVQNFNATVSTKQFQVFSEQNTSSYSAEPQLDVNYYQNDVGPFDTRIYGQAVHFVNTRDDMPEATRVHLEPTINLPLSNNWGSINTEAKLLATHYQQTNLDWYNSRNTTKLDESVNRVMPQFKVDGKMVFERDMEMLAPGYTQTLEPRAQYLYVPYRDQSDIYNYDSSLLQSDYSGLFRDRTYGGLDRIASANQVTTGVTSRIYDDAAVERFNISVGQIYYFTESRTGDDNITWENDDKTGSLVWAGDTYWRISERWGLRGGIQYDTRLDNVATSNSSIEYRRDEDRLVQLNYRYASPEYIQATLPKYYSTAEQYKNGISQVGAVASWPIADRWSIVGAYYYDTNANKQADSMLGVQYSSCCYAIRVGYERKLNGWDNDKQHAVYDNAIGFNIELRGLSSNYGLGTQEMLRSNILPYQNTL", "notes": "LptD, E. coli, UniProt P31554; mature protein (theoretical mass 87,080 Da); Untagged; Cysteines at 31, 173, 724 and 725 (C1 to C4); the mature oxidized form LptD^Ox has the disulfides C1-C3 and C2-C4; samples from ΔlptM cells also hold partially oxidized forms; also called LptD^CCCC; wild-type LptD; source: E. coli BW25113 (wild-type or ΔlptM), overproduced from pLptDE^His or pLptDEM^His; …"}, "B3": {"name": "LptE (natural protein)", "chain": "not shown", "modifications": "tri-acylated (mature and tri-acylated protein)", "notes": "LptE, E. coli, UniProt P0ADC1; mature and tri-acylated lipoprotein (theoretical mass 20,248 Da); Untagged; source: E. coli BW25113 ΔlptM, overproduced from pLptDEM^His; DDM-solubilized envelope fraction"}}, "key": {"LptE [1]": {"target": "B3", "experiment": "HDX-MS; LPS translocon produced in the presence or absence of LptM, purified in detergent micelles; 20 μM protein diluted in deuterated buffer (20 mM MES pH 6.5, 200 mM NaCl), 20 °C, 0.5 to 30 min; pepsin digestion", "conditions": "both partners purified"}, "LptD [2]": {"target": "B2", "experiment": "HDX-MS; LPS translocon produced in the presence or absence of LptM, purified in detergent micelles; 20 μM protein diluted in deuterated buffer (20 mM MES pH 6.5, 200 mM NaCl), 20 °C, 0.5 to 30 min; pepsin digestion", "conditions": "both partners purified"}, "LptM^His": {"target": "B1", "experiment": "native MS; co-expressed and Ni-affinity co-purified complexes LptDE^His and LptDEM^His, ~10-20 μM in 200 mM ammonium acetate pH 7.4, 0.03% DDM; nano-electrospray, positive ion mode", "conditions": "both partners purified"}, "LptE [3]": {"target": "B3", "experiment": "native MS; co-expressed and Ni-affinity co-purified complexes LptDE^His and LptDEM^His, ~10-20 μM in 200 mM ammonium acetate pH 7.4, 0.03% DDM; nano-electrospray, positive ion mode", "conditions": "both partners purified"}, "LptD [4]": {"target": "B2", "experiment": "pull-down; Ni-affinity purification of LptE^His from the DDM-solubilized envelope fraction of wild-type (lptM^+) cells with pLptDE^His; Ni-NTA 2 h at 4 °C, 50 mM Tris-HCl pH 8, 150 mM NaCl, DDM; SDS-PAGE or BN-PAGE, Coomassie staining or Western blotting", "conditions": "partners not purified"}}, "note": "Where no end group is shown, it is not given here."}
{"binder": "B1", "values": [{"measurement": "binding result", "setting": "LptE [1]", "result": "binds"}, {"measurement": "binding result", "setting": "LptD [2]", "result": "binds"}]}
{"binder": "B2", "values": [{"measurement": "stoichiometry N", "setting": "LptM^His", "result": 1}, {"measurement": "stoichiometry N", "setting": "LptE [3]", "result": 1}]}
{"binder": "LptE^His (natural protein, tri-acylated (mature and tri-acylated protein), LptE, E. coli, UniProt P0ADC1; mature and tri-acylated lipoprotein (theoretical mass with the tag 21,348 Da); also called C-terminally poly-histidine tagged variant of LptE; source: E. coli BW25113 (wild-type or ΔlptM), overproduced from pLptDE^His or pLptDME^His; DDM-solubilized envelope fraction; not shown: poly-histidine, C-terminal, kept) not shown", "values": [{"measurement": "binding result", "setting": "LptD [4]", "result": "binds"}]}
{"binder": "B3", "values": [{"measurement": "stoichiometry N", "setting": "LptM^His", "result": 1}]}
